Tests used:
[1] = molecular target: T1, Sac3-M (Sac3 250-563);Thp1;Sem1 (Saccharomyces cerevisiae;Saccharomyces …, UniProt P46674;Q08231;O94742 250-563;1-455;1-89, ||); experiment: EMSA
T1 sequence 1: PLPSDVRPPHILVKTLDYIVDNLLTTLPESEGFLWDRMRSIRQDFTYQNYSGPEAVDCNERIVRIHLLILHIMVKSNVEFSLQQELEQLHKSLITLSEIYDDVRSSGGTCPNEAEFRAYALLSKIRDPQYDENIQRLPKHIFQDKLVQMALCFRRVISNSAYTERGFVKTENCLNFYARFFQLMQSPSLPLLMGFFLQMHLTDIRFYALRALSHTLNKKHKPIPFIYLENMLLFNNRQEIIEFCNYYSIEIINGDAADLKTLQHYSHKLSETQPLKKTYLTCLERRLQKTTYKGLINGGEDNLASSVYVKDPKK
T1 sequence 2: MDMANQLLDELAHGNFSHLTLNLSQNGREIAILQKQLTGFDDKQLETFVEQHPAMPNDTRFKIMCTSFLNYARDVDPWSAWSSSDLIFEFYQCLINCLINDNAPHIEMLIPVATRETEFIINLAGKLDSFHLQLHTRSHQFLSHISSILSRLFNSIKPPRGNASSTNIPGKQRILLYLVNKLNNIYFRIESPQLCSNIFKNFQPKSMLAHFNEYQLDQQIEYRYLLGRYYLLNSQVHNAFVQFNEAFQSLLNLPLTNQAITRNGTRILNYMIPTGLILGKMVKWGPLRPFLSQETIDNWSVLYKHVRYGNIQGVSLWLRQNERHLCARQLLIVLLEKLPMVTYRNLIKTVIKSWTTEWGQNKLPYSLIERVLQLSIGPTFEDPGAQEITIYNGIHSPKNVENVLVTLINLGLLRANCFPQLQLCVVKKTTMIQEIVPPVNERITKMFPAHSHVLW
T1 sequence 3: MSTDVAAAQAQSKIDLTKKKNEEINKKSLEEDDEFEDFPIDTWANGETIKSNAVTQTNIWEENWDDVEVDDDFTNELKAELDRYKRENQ

[2] = molecular target: T2, ProtA-Sac3 250-563;Thp1;Sem1 (Saccharomyces cerevisiae;Saccharomyces …, UniProt P46674;Q08231;O94742 250-563;1-455;1-89, ||); experiment: EMSA
T2 sequence 1: T1 sequence 1
T2 sequence 2: T1 sequence 2
T2 sequence 3: T1 sequence 3

[3] = molecular target: T1, Sac3-M (Sac3 250-563);Thp1;Sem1; experiment: EMSA; remark: listed apart in the source
[4] = molecular target: T3, His-Thp1 (full-length Thp1, coexpressed with Sem1) (S. cerevisiae, UniProt Q08231 1-455); experiment: crystal structure
T3 sequence: T1 sequence 2

[5] = molecular target: T3, His-Thp1 (full-length Thp1, coexpressed …); experiment: pull-down

B1: polyU25 RNA (ssRNA)
RNA: UUUUUUUUUUUUUUUUUUUUUUUUU
B1 showed a Kd [1] of 175 nM.

B2: polyA25 RNA (ssRNA)
RNA: AAAAAAAAAAAAAAAAAAAAAAAAA
B2: binds [2]; binds [3].

B3: Sac3 residues 250-563 (Sac3-M), as crystallised (domain or fragment)
chain: T1 sequence 1
B3: binds [4].

B4: Sem1 (full length, bacterially expressed) (natural protein)
chain: T1 sequence 3
B4: binds [5].

Reference: paper PMC3303126 (Nature structural & molecular biology, 2012)
